T1: MukB–Flag (E. coli, UniProt P22523 1-1486)
T1 construct: MukB, E. coli; printed MW with Flag 171.7 kDa; The printed mass fits the whole protein; also called FLAG-tagged MukB
T1 sequence (looked up): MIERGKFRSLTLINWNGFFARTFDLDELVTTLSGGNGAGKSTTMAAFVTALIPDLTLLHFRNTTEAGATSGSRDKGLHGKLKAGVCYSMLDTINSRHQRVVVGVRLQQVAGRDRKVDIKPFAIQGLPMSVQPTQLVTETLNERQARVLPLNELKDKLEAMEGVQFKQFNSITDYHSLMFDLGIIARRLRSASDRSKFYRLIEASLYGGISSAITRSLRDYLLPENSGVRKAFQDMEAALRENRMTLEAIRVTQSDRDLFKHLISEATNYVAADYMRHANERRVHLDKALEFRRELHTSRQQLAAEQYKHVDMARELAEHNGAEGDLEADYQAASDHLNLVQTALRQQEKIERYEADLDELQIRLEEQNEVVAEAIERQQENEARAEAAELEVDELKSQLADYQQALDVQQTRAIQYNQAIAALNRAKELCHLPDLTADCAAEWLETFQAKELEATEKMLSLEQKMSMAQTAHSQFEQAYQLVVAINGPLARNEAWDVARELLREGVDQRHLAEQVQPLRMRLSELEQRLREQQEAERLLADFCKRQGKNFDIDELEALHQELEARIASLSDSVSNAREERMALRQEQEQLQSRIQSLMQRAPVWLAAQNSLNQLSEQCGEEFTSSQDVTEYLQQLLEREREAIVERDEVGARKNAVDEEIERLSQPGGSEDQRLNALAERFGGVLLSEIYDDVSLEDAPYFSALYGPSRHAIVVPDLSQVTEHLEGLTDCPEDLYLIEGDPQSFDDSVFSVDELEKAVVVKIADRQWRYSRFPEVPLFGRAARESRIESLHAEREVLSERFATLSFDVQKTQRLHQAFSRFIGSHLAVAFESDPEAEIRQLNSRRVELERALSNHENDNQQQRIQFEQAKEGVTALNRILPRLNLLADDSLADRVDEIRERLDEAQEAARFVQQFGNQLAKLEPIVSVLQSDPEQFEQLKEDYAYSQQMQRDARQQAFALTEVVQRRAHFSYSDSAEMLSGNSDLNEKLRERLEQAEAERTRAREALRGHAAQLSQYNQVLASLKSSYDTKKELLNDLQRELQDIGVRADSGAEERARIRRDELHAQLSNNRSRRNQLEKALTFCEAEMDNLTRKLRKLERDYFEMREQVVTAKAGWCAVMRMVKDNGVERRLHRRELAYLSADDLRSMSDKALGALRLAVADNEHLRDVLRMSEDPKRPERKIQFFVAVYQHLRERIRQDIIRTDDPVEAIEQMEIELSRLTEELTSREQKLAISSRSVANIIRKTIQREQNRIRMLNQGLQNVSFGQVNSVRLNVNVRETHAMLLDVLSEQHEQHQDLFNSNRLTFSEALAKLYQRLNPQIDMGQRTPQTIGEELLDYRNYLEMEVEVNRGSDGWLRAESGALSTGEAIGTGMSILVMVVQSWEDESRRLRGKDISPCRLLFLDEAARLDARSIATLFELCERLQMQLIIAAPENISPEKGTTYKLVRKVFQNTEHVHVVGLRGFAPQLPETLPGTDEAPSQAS

T2: Hinge–Flag (E. coli, UniProt P22523 566-863)
T2 construct: MukB, E. coli, residues 566-863 (Hinge construct); printed MW with Flag 35.2 kDa; Hinge proteins gave 2 bands on SDS-PAGE, maybe because of proteolytic cleavage; also called FLAG-tagged Hinge
T2 sequence (looked up): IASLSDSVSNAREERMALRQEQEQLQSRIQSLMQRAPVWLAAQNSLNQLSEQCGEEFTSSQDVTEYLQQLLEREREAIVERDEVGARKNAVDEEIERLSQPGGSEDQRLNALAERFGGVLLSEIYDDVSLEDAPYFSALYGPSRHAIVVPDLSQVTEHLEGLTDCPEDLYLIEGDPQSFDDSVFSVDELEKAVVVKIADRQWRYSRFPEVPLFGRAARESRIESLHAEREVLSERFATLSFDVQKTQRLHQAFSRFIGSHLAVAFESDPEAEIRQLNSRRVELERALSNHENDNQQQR

T3: MukB Hinge, purified (36 kDa) (E. coli, UniProt P22523 566-863)
T3 construct: MukB, E. coli, residues 566-863 (Hinge construct); printed size 36 kDa; details of purification are in Supplementary Methods; source: E. coli C3013I, pET vector, purified
T3 sequence (looked up): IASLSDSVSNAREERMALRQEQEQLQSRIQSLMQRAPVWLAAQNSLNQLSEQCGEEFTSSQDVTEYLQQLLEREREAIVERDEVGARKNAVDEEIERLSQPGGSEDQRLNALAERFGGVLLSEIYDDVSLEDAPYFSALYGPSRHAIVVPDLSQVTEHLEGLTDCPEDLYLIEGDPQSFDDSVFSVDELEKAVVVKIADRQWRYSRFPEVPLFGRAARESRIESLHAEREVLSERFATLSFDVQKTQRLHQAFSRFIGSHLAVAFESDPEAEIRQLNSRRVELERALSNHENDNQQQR

T4: MukB-6×His, purified (E. coli, UniProt P22523 1-1486)
T4 construct: MukB, E. coli; printed MW with 6×His 172.6 kDa; The printed mass fits the whole protein; source: E. coli C3013I, pET vector, purified
T4 sequence (looked up): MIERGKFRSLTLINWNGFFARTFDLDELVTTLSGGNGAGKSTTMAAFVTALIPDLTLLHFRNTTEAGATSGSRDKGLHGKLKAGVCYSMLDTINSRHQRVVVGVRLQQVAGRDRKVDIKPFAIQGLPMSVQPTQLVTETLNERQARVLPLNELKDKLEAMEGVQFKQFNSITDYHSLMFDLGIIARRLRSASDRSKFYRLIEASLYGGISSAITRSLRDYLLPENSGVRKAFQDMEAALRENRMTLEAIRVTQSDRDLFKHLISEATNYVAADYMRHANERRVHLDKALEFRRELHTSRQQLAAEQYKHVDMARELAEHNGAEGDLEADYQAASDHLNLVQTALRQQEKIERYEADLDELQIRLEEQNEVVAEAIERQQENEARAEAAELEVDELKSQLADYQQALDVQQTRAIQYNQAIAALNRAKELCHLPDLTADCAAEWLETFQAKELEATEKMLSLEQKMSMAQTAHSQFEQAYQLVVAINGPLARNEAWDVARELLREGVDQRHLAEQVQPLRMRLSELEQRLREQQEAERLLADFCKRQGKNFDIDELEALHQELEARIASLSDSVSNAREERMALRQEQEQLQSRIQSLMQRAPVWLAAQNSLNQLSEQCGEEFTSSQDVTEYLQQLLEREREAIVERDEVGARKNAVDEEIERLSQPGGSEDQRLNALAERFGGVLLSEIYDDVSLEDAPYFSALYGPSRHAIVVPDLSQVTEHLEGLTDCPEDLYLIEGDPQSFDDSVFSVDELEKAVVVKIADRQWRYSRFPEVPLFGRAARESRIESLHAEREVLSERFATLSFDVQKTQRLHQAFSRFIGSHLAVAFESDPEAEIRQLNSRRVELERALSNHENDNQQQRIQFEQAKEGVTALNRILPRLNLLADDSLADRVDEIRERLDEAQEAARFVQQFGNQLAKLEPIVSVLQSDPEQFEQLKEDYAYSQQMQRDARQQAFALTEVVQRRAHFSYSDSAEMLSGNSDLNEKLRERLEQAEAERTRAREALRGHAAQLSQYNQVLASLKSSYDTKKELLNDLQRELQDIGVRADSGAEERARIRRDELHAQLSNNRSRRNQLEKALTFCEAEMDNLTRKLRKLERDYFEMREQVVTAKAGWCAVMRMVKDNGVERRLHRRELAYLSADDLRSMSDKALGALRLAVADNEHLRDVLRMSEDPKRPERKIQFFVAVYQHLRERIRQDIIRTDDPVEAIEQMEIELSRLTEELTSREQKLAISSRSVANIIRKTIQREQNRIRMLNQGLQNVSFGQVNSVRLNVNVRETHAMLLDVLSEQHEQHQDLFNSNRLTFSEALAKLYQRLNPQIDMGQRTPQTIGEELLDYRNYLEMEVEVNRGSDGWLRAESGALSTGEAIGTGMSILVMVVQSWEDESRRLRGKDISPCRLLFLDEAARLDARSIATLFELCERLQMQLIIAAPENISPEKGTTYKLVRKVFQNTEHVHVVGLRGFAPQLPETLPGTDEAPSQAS


Columns and labels:
Details in all cases: both partners purified
[1] = target: T1, MukB–Flag; assay: co-IP; MukB–Flag or Hinge–Flag from cell lysate bound to anti-Flag M2 Affinity gel and washed; purified MatPΔC18-6×His added in 50 mM HEPES pH 7.5, 100 mM NaCl, 45 min, 4 °C; SDS-PAGE
[2] = target: T2, Hinge–Flag; assay: as above
[3] = target: T3, MukB Hinge, purified (36 kDa); assay: SEC; Superose 6 10/300 GL; 50 mM HEPES pH 7.5, 100 mM NaCl, 1 mM DTT, 1 mM EDTA, 5 mM MgCl2; MatPΔC18 (73 μM) and/or Hinge (15 μM); fractions on SDS-PAGE
[4] = target: T4, MukB-6×His, purified; assay: co-IP; MatPΔC18–Flag from cell lysate bound to anti-Flag M2 Affinity gel and washed; purified MukB, MukE, MukF added as indicated in 50 mM HEPES pH 7.5, 100 mM NaCl, 45 min, 4 °C; SDS-PAGE

Row | binding result [1] | binding result [2] | binding result [3] | binding result [4] | Binder
1 | binds | binds | binds |  | MatPΔC18-6×His, purified (domain or fragment, E. coli, UniProt P0A8N0 1-132, looked up, MatP, E. coli, truncated by its 18 C-terminal amino-acid residues; printed MW with 6×His 18.3 kDa; source: E. coli C3013I, pET vector, purified) MKYQQLENLESGWKWKYLVKKHREGELITRYIEASAAQEAVDVLLSLENEPVLVNGWIDKHMNPELVNRMKQTIRARRKRHFNAEHQHTRKKSIDLEFIVWQRLAGLAQRRGKTLSETIVQLIEDAENKEKY
2 |  |  |  | binds | MatPΔC18–Flag (domain or fragment, E. coli, UniProt P0A8N0 1-132, looked up, MatP, E. coli, truncated by its 18 C-terminal amino-acid residues; printed MW with Flag 16.9 kDa; also called FLAG-tagged MatPΔC18) MKYQQLENLESGWKWKYLVKKHREGELITRYIEASAAQEAVDVLLSLENEPVLVNGWIDKHMNPELVNRMKQTIRARRKRHFNAEHQHTRKKSIDLEFIVWQRLAGLAQRRGKTLSETIVQLIEDAENKEKY
